# T1: Macaca fascicularis PDGFRb.mmh (Macaca fascicularis)
# T1 construct: Soluble monomeric construct; also called mfPDGFRb.mmh
# T1 chain: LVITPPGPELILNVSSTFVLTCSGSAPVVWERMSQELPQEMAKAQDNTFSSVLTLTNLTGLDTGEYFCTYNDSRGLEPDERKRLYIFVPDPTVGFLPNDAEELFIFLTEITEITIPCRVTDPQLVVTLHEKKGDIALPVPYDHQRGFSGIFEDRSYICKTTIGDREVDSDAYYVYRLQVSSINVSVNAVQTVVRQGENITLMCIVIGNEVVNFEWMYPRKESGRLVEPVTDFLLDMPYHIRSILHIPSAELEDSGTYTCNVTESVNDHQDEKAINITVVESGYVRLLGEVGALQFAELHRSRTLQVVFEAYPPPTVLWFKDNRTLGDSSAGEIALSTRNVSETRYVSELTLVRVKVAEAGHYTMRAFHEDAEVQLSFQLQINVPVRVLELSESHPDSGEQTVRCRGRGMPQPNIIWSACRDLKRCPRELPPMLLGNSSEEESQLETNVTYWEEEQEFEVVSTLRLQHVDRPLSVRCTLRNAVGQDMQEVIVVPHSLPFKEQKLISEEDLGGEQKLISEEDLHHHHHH
# Key:
# hPDGFRb.mmh [1] = target: T2, hPDGFRb.mmh (human, UniProt P09619 33-531); assay: Octet BLI cross-competition, 25 C; hPDGFRb.mmh on anti-Penta-His tips pre-saturated with mAb-1 H4H3305N (row 8)
# T2 construct: Soluble monomeric construct; also called soluble human PDGFR-beta.mmh
# Description: (§1) A cross-competition assay was conducted to assess the ability of select antibodies to compete with one another for binding to human PDGFR-beta. […] Each PDGFR-beta.mmh-coated sensor tip was saturated for 5 min with a first anti-PDGFR-beta antibody (Mab #1; 50 μg/mL). Next, each sensor tip was saturated with a solution of a second anti-PDGFR-beta antibody (Mab #2). The real time response of Mab #2 binding to PDGR-beta.mmh pre-complexed with Mab #1 was then monitored. All assays were performed at 25° C. with a flow rate of 1000 rpm on an Octet RED384 biosensor in Octet HBST buffer according to manufacturer's instructions (ForteBio Corp., Menlo Park, Calif.). Results are illustrated in FIG. 2.
# hPDGFRb.mmh [2] = target: T2, hPDGFRb.mmh; assay: Octet BLI cross-competition, 25 C; hPDGFRb.mmh on anti-Penta-His tips pre-saturated with mAb-1 Control I (row 1)
# Description: as §1
# human PDGFRb.hFc [3] = target: T3, human PDGFRb.hFc (human); assay: SPR, mAb captured, 37 C
# T3 construct: Soluble dimeric construct with human Fc; also called hPDGFRb.hFc
# Description: (§2) Antibodies, expressed as either mouse Fc (prefix H1M; H2M) or human Fc (prefix H4H), were captured on their respective anti-Fc sensor surfaces (Mab capture format). […] Kinetic association (kₐ) and dissociation (kd) rate constants were determined by processing and fitting the data to a 1:1 binding model using Scrubber 2.0 curve fitting software.
# hPDGFRb.mmh [4] = target: T2, hPDGFRb.mmh; assay: SPR, mAb captured, 37 C
# Description: as §2
# [5] = target: T1, Macaca fascicularis PDGFRb.mmh; assay: SPR, mAb captured, 37 C
# Description: as §2
# hPDGFRb.mmh [6] = target: T2, hPDGFRb.mmh; assay: Octet BLI cross-competition, 25 C; hPDGFRb.mmh on anti-Penta-His tips pre-saturated with mAb-1 H4H3310N (row 9)
# Description: as §1
# hPDGFRb.mmh [7] = target: T2, hPDGFRb.mmh; assay: Octet BLI cross-competition, 25 C; hPDGFRb.mmh on anti-Penta-His tips pre-saturated with mAb-1 H4H3099S (row 6)
# Description: as §1
# hPDGFRb.mmh [8] = target: T2, hPDGFRb.mmh; assay: blocking ELISA, biot-hPDGFRb.mmh to coated PDGF-BB
# hPDGFRb.mmh [9] = target: T2, hPDGFRb.mmh; assay: Octet BLI cross-competition, 25 C; hPDGFRb.mmh on anti-Penta-His tips pre-saturated with mAb-1 H4H3094P (row 5)
# Description: as §1
# [10] = target: T4, full length human PDGFR-beta on HEK293 cells (human, UniProt P09619 33-1106); assay: cell-based or functional assay
# human PDGFRb.hFc [11] = target: T3, human PDGFRb.hFc; assay: SPR, mAb captured, 25 C
# Description: as §2
# hPDGFRb.mmh [12] = target: T2, hPDGFRb.mmh; assay: SPR, mAb captured, 25 C
# Description: as §2
# [13] = target: T1, Macaca fascicularis PDGFRb.mmh; assay: SPR, mAb captured, 25 C
# Description: as §2
# hPDGFRb.mmh [14] = target: T2, hPDGFRb.mmh; assay: Octet BLI cross-competition, 25 C; hPDGFRb.mmh on anti-Penta-His tips pre-saturated with mAb-1 H4H3374N (row 3)
# Description: as §1
# hPDGFRb.mmh [15] = target: T2, hPDGFRb.mmh; assay: Octet BLI cross-competition, 25 C; hPDGFRb.mmh on anti-Penta-His tips pre-saturated with mAb-1 H4H3103S (row 4)
# Description: as §1
# [16] = target: T4, full length human PDGFR-beta on HEK293 …; assay: cell-based or functional assay; remark: listed apart in the source
# hPDGFRb.mmh [17] = target: T2, hPDGFRb.mmh; assay: Octet BLI cross-competition, 25 C; hPDGFRb.mmh on anti-Penta-His tips pre-saturated with mAb-1 H4H3365N (row 2)
# Description: as §1
# hPDGFRb.mmh [18] = target: T2, hPDGFRb.mmh; assay: Octet BLI cross-competition, 25 C; hPDGFRb.mmh on anti-Penta-His tips pre-saturated with mAb-1 H4H3107S (row 7)
# Description: as §1
Binder,Response of mAb-2 Binding to hPDGFRβ.mmh Pre-Complexed with mAb-1 (nm) (hPDGFRb.mmh [1]),Kd (human PDGFRb.hFc [3]),koff (human PDGFRb.hFc [3]),kon (human PDGFRb.hFc [3]),t1/2 (human PDGFRb.hFc [3]),Kd (hPDGFRb.mmh [4]),koff (hPDGFRb.mmh [4]),kon (hPDGFRb.mmh [4]),t1/2 (hPDGFRb.mmh [4]),Kd [5],koff [5],kon [5],t1/2 [5],Response of mAb-2 Binding to hPDGFRβ.mmh Pre-Complexed with mAb-1 (nm) (hPDGFRb.mmh [6]),Response of mAb-2 Binding to hPDGFRβ.mmh Pre-Complexed with mAb-1 (nm) (hPDGFRb.mmh [7]),% Maximum Blocking (hPDGFRb.mmh [8]),IC50 (hPDGFRb.mmh [8]),Response of mAb-2 Binding to hPDGFRβ.mmh Pre-Complexed with mAb-1 (nm) (hPDGFRb.mmh [9]),Percent Internalization (Relative to Control I) [10],Kd (human PDGFRb.hFc [11]),also measured
"H4H3107S (antibody, human IgG4, V domains shown, human IgG4 Fc (H4H prefix)) VH: QVQLVESGGGFVQPGGSLRLSCAASGFTFTNYAMSWVRQAPGKGLEWVSAISGVGGSTYYADSVKGRFTISRDTSKNMLYLQMNSLRAEDTAVYYCAKAPHWGPFGSWGQGTLVTVSS VL: not shown",0.02 nm,0.165 nM,0.000115 s⁻¹,695000 M⁻¹ s⁻¹,101 min,1.45 nM,0.000879 s⁻¹,605000 M⁻¹ s⁻¹,13 min,1.38 nM,0.000942 s⁻¹,683000 M⁻¹ s⁻¹,12 min,0.02 nm,0.01 nm,83%,0.066 nM,0.36 nm,92%,0.0801 nM,"Response of mAb-2 Binding to hPDGFRβ.mmh Pre-Complexed with mAb-1 (nm) (hPDGFRb.mmh [2]): 0.28 nm; koff (human PDGFRb.hFc [11]): 4.24e-05 s⁻¹; kon (human PDGFRb.hFc [11]): 529000 M⁻¹ s⁻¹; t1/2 (human PDGFRb.hFc [11]): 272 min; Kd (hPDGFRb.mmh [12]): 0.863 nM; koff (hPDGFRb.mmh [12]): 0.000191 s⁻¹; kon (hPDGFRb.mmh [12]): 221000 M⁻¹ s⁻¹; t1/2 (hPDGFRb.mmh [12]): 61 min; Kd [13]: 0.836 nM; koff [13]: 0.000198 s⁻¹; kon [13]: 236000 M⁻¹ s⁻¹; t1/2 [13]: 58 min; Response of mAb-2 Binding to hPDGFRβ.mmh Pre-Complexed with mAb-1 (nm) (hPDGFRb.mmh [14]): 0.31 nm; Response of mAb-2 Binding to hPDGFRβ.mmh Pre-Complexed with mAb-1 (nm) (hPDGFRb.mmh [15]): 0.33 nm; IC50, blocking PDGF-BB (250 pM) activation, SRE-luciferase [16]: 1.7e-10 M; IC50, blocking PDGF-DD (400 pM) activation, SRE-luciferase [16]: 2.4e-10 M; Response of mAb-2 Binding to hPDGFRβ.mmh Pre-Complexed with mAb-1 (nm) (hPDGFRb.mmh [17]): 0.32 nm"
"H4H3365N (antibody, human IgG4, V domains shown, human IgG4 Fc (H4H prefix)) VH: EVQLVESGGGLVQPGRSLRLSCAASGFTFDDFAMHWVRQVPGKGLEWVSGISWSSGTIGYVGSVKGRFTISRDNAKNSLYLQMNSLRAEDTAMYFCTKDKAAFHDAFDIWGQGTMVTVSS VL: not shown",0.28 nm,1.05 nM,0.000264 s⁻¹,250000 M⁻¹ s⁻¹,44 min,5.38 nM,0.00102 s⁻¹,190000 M⁻¹ s⁻¹,11 min,5.06 nM,0.00101 s⁻¹,200000 M⁻¹ s⁻¹,11 min,0.28 nm,0.29 nm,87%,0.37 nM,0 nm,65%,0.244 nM,"Response of mAb-2 Binding to hPDGFRβ.mmh Pre-Complexed with mAb-1 (nm) (hPDGFRb.mmh [18]): 0.26 nm; koff (human PDGFRb.hFc [11]): 4.55e-05 s⁻¹; kon (human PDGFRb.hFc [11]): 184000 M⁻¹ s⁻¹; t1/2 (human PDGFRb.hFc [11]): 254 min; Kd (hPDGFRb.mmh [12]): 1.66 nM; koff (hPDGFRb.mmh [12]): 0.000142 s⁻¹; kon (hPDGFRb.mmh [12]): 85300 M⁻¹ s⁻¹; t1/2 (hPDGFRb.mmh [12]): 81 min; Kd [13]: 1.7 nM; koff [13]: 0.00015 s⁻¹; kon [13]: 88300 M⁻¹ s⁻¹; t1/2 [13]: 77 min; Response of mAb-2 Binding to hPDGFRβ.mmh Pre-Complexed with mAb-1 (nm) (hPDGFRb.mmh [14]): 0.01 nm; Response of mAb-2 Binding to hPDGFRβ.mmh Pre-Complexed with mAb-1 (nm) (hPDGFRb.mmh [15]): 0.01 nm; IC50, blocking PDGF-BB (250 pM) activation, SRE-luciferase [16]: 2.3e-10 M; IC50, blocking PDGF-DD (400 pM) activation, SRE-luciferase [16]: 3.7e-10 M"
